Key:
[1] = target: invertase activity in the soluble fraction of a leaf extract of a wild type plant; assay: cell-based or functional assay
[2] = target: invertase activity in the cell wall fraction of wild type tobacco leaves; assay: cell-based or functional assay

Substance	invertase activity in mixed-extract assay, percent of the added value of the extracts incubated separately (5 mM sucrose, pH 4.5) [1] [%]	invertase activity in mixed-extract assay, percent of the added value (1 mM sucrose; concentrated cell wall fraction of transgenic leaves) [2] [%]	invertase activity in mixed-extract assay, percent of the added value (5 mM sucrose; concentrated cell wall fraction of infiltrated transgenic leaves) [2] [%]
Arabidopsis thaliana cell wall invertase inhibitor AtC/VIF2 (At5g46940)	86		
Arabidopsis thaliana vacuolar invertase inhibitor AtC/VIF1 (At1g47960) (from UniProt F4HWQ8 24-205)	79		
tobacco apoplasmic invertase inhibitor (Greiner et al., 1998)		58	70

— patent US20090293142A1
